{"source": "the supplement of paper PMC10724198", "key": {"Saccharomyces cerevisiae [1]": {"system": "Saccharomyces cerevisiae", "assay": "protein stability index of tFT-peptide fusion (C-terminal peptide) (PSI (0-1 scale)); higher = more stable (slower turnover)", "conditions": "genetic background: wild type; temperature: 30 C"}, "Saccharomyces cerevisiae [2]": {"system": "Saccharomyces cerevisiae", "assay": "protein stability index of tFT-peptide fusion in wild type (PSI (0-1 scale)); higher = more stable (slower turnover)", "conditions": "genetic background: wild type"}, "Saccharomyces cerevisiae [3]": {"system": "Saccharomyces cerevisiae", "assay": "protein stability index of tFT-peptide fusion (C-terminal peptide) (PSI (0-1 scale)); higher = more stable (slower turnover)", "method": "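MPS profiling in S. cerevisiae of the tFT-X12 degron library: putative degron peptides plus stable controls, 12 aa, fused to the C-terminus of a sfGFP-mCherry timer. Cells are FACS-sorted into 8 mCherry/sfGFP bins and deep-sequenced. PSI runs from 0 (unstable) to 1 (stable). Backgrounds are wild type, das1Δ and doa10Δ at 30 °C, and wild type, das1Δ, cdc34-1 and cdc53-1 at 37 °C; 2-3 technical replicates each.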"}, "Saccharomyces cerevisiae [4]": {"system": "Saccharomyces cerevisiae", "assay": "protein stability index of tFT-peptide fusion in deletion strain of DOA10 (PSI (0-1 scale)); higher = more stable (slower turnover)", "method": "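MPS profiling in S. cerevisiae of two library types built from selected 12-aa C-degron peptides (IN1, IN2, LN1, LN3, VN2, R1-R5, W1-W3, Atg1 and Rpa12 C-termini): saturation mutagenesis libraries and C-terminal +1 capping libraries (13 aa). Each peptide is fused to the C-terminus of a sfGFP-mCherry timer, after a GGGS linker. Cells are FACS-sorted into 8 mCherry/sfGFP bins and sequenced. PSI runs from 0 (unstable) to 1 (stable), measured once in wild type and in the das1Δ or doa10Δ background.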"}}, "note": "± gives the standard deviation of the averaged measurements.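 For protein stability index of tFT-peptide fusion (C-terminal peptide) in this document: PSI is a weighted mean of sequencing reads over stability bins, variants kept only with over 10 reads, mCherry proximal and sfGFP distal, peptide attached via GGGS linker.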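 For protein stability index of tFT-peptide fusion in deletion strain of DOA10 in this document: PSI per variant is the weighted mean of its sequencing read distribution over the sorted stability bins, counting only variants with over 10 reads summed across bins.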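 For protein stability index of tFT-peptide fusion in wild type in this document: PSI derived as read-weighted mean over the 8 sorting bins, only variants exceeding 10 total reads kept, mCherry placed adjacent to the peptide and sfGFP distal.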", "data": [{"sequence": "RSLRVLLPLYFR", "values": [{"measurement": "protein stability index", "setting": "Saccharomyces cerevisiae [1]", "result": "0.3478 ± 0.0013"}, {"measurement": "protein stability index", "setting": "Saccharomyces cerevisiae [2]", "result": 0.289}, {"measurement": "protein stability index", "setting": "Saccharomyces cerevisiae [3]; genetic background: cdc34-1, temperature: 37 C", "result": "0.082 ± 0.034"}, {"measurement": "protein stability index", "setting": "Saccharomyces cerevisiae [3]; genetic background: cdc53-1, temperature: 37 C", "result": "0.0762 ± 0.025"}, {"measurement": "protein stability index", "setting": "Saccharomyces cerevisiae [3]; genetic background: das1 deletion, temperature: 30 C", "result": "0.234 ± 0.029"}, {"measurement": "protein stability index", "setting": "Saccharomyces cerevisiae [3]; genetic background: das1 deletion, temperature: 37 C", "result": "0.271 ± 0.004"}, {"measurement": "protein stability index", "setting": "Saccharomyces cerevisiae [3]; genetic background: doa10 deletion, temperature: 30 C", "result": "0.66 ± 0.029"}, {"measurement": "protein stability index", "setting": "Saccharomyces cerevisiae [3]; genetic background: wild type, temperature: 30 C", "result": "0.234 ± 0.022"}, {"measurement": "protein stability index", "setting": "Saccharomyces cerevisiae [3]; genetic background: wild type, temperature: 37 C", "result": "0.266 ± 0.043"}, {"measurement": "protein stability index", "setting": "Saccharomyces cerevisiae [4]", "result": 0.66}]}]}
